Measured values from patent US20190359653A1, “SELECTIVE PEPTIDE INHIBITORS OF FRIZZLED” (Genentech, Inc., priority 2016, published 2019).

Target: FZD7 class proteins
Test: ELISA of biotinylated Wnt binding to FZD CRD-Fc with or without peptide

Question: How did the fold enhancement of binding by Fz7-21 or dFz7-21 turn out when “Biotinylated Wnt3a (from UniProt P27467 19-352) (ligand)” was run?
Answer: The fold enhancement of binding by Fz7-21 or dFz7-21 was 1.5 to 2 fold.
